Measured values: patent US20190183976A1

Target: T1, CXCR4-VC (human), P61073
T1 chain: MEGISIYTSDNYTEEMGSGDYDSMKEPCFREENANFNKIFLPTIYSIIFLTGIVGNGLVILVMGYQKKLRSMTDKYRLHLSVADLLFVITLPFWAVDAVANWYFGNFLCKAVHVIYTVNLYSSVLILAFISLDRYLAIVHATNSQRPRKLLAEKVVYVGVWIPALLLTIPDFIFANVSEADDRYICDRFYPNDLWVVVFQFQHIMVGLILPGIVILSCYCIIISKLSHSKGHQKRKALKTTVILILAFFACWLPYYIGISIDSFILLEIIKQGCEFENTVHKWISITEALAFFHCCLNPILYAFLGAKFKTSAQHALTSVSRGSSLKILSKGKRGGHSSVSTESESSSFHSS
Assay: BiFC, U-2 OS cells; score=(positive cells/total cells)x100
Settings: remark: other sources report otherwise

BiFC score: 9.9
B1: CXCR4-VN, P61073 1-352 (receptor, human, UniProt P61073 1-352, looked up, not shown: small tags and cut ends)
chain: T1 chain
